# Source: patent US20110076272A1, “THERAPEUTIC METHODS AND COMPOSITIONS” (priority 2009, published 2011)
# Read-outs that look alike come from different tables or passages of the source.
# B1: AB0023: mouse anti-human LOXL2 monoclonal antibody; heavy chain variable region SEQ ID NO:1, light chain variable region SEQ ID NO:2 (antibody, listed as Mus musculus, V domains shown)
# VH: MEWSRVFIFLLSVTAGVHSQVQLQQSGAELVRPGTSVKVSCKASGYAFTYYLIEWVKQRPGQGLEWIGVINPGSGGTNYNEKFKGKATLTADKSSSTAYMQLSSLTSDDSAVYFCARNWMNFDYWGQGTTLTVSS
# VL: MRCLAEFLGLLVLWIPGAIGDIVMTQAAPSVSVTPGESVSISCRSSKSLLHSNGNTYLYWFLQRPGQSPQFLIYRMSNLASGVPDRFSGSGSGTAFTLRISRVEAEDVGVYYCMQHLEYPYTFGGGTKLEIK
# modifications: Heavy chain; Light chain
# Columns and labels:
# [1] = tested on: Matrigel plug containing bFGF; assay: In vivo Matrigel plug angiogenesis assay; design: species or system mouse; details: 30 mg/kg i.p. twice weekly
# Procedure: Athymic female Ncr:Nu/Nu mice were injected subcutaneously in the flank with 0.5 ml high-concentration Matrigel (BD Biosciences, San Jose, Calif.) supplemented with 100 ng/ml FGF and 60 U heparin. Matrigel injections were conducted one week after initiation of treatments with antibodies). Antibodies (or PBST, as a control) were administered by intraperitoneal injection of 30 mg/kg twice weekly. Matrigel plugs were harvested 10 days after implantation by excising the plug together with attached skin, and were fixed in 10% neutral buffered formalin and embedded in paraffin. 5 um sections were cut and stained with hematoxylin and eosin, anti-CD31 or anti-CD34 antibodies to assess degree of vessel formation.
# MDA-MB-231 cells = assay: Disseminated bone metastasis model, MDA-MB-231 cells injected in the left ventricle; assay type: in vivo, mouse
# Procedure: The therapeutic consequences of inhibiting either LOXL2 or LOX were assessed in a model of disseminated bone metastasis. Specific antibodies targeting LOXL2 or LOX were used to treat mice injected in the left ventricle with ˜1 million labeled MDA-MB-231 cells. The breast tumor cell line MDA-MB-231 has been widely used as a model to study LOX, and expresses all 5 lysyl oxidase-type enzymes (FIG. 11, panel A). The ability of LOXL2 inhibitory antibody AB0023 to reduce tumor burden was compared to LOX-specific antibody M64, which is a monoclonal antibody targeting the same peptide sequence in the LOX enzymatic domain previously described as generating an inhibitory polyclonal antiserum.
# [2] = tested on: human umbilical vein endothelial cells (HUVEC); assay: In vitro HUVEC tube formation assay; assay type: cell-based; details: for IC50: CD31 staining, day 11
# Procedure: Human umbilical vein endothelial cells (HUVECs) were plated on a feeder layer of fibroblasts and cultured in 24-well plates in Lonza EBM-2 medium (a basal medium developed for normal human endothelial cells in a low-serum environment) supplemented with hEGF, Hydrocortisone, GA-1000 (Gentamicin, Amphotericin-B), FBS (Fetal Bovine Serum) 10 ml (2% final), VEGF, hFGF-B, R3-IGF-1, Ascorbic Acid and heparin. […] At this point (day 1), 0.5 ml of fresh endothelial cell growth medium containing no additions (control), anti-LOXL2 antibody AB0023, or suramin was added to the wells. The plate was then cultured at 37° C. and 5% CO2. On days 4, 7 and 9 the medium was removed from all wells and carefully replaced with 0.5 ml of fresh medium containing the additions listed above. On day 11, the plates were fixed and tubules were assayed for CD31 expression as follows. Wells were washed with 1 ml PBS and fixed with 1 ml ice cold 70% ethanol for 30 minutes at room temperature. Cells were then incubated, for 60 minutes at 37° C., with 0.5 ml mouse anti-human CD31 antibody diluted 1:400 in PBS containing 1% BSA. Wells were then washed three times with 1 ml PBS, followed by incubation for 60 minutes at 37° C. with 0.5 ml alkaline phosphatase-conjugated goat anti-mouse IgG secondary antibody diluted 1:500 in PBS containing 1% BSA. Wells were washed a further three times with 1 ml PBS prior to incubation for 10 minutes at 37° C. with 0.5 ml freshly prepared and filtered BCIP/NBT substrate. Wells were then carefully washed three times with 1 ml distilled water and left to air dry overnight.
# Digital images of each well were taken using a Nikon Coolpix camera on a Leica inverted microscope at 10× magnification. Four random fields per well were imaged, producing 96 images in total. Images were then converted to BMP files and imported into an image analysis package to measure number of vessel branches, number of vessels and total vessel length. […]
# [3] = tested on: fibroblasts or tumor cell lines; assay: Short-term growth factor signaling (TGFb, PDGF-BB) with or without AB0023; assay type: cell-based
# [4] = tested on: MDA-MB-435 established primary tumors; assay: MDA-MB-435 established primary tumor xenograft model; assay type: in vivo, mouse; details: independent study; AB0023 5 mg/kg twice per week, BAPN 100 mg/kg daily
molecule,measurement,setting,value
B1,CD31 positive cells in the matrigel plugs,[1]; p=0.0168,significant decrease
same,reduction in average number of vessels in plugs versus vehicle,"[1]; plugs at day 10, p=0.0319",~7 fold
same,"reduction in tumor cell burden in the femurs, by median value","MDA-MB-231 cells; day 28, p=0.0021",127 fold
same,"reduction in tumor cell burden in total ventral bone, by median value","MDA-MB-231 cells; day 28, p=0.0197",28 fold
same,survival,"MDA-MB-231 cells; separate study, 30 mg/kg AB0023 twice weekly in combination with 5 mg/kg Paclitaxel once per week, p=0.025",significant survival benefit
same,"inhibition of vessel branching, vessel length and total number of vessels",[2]; 50 ug/ml,complete inhibition
same,IC50,[2]; read-out: IC50 for inhibition of number of vessels (FIG. 4 Panel H),19.9 nM
same,IC50,"[2]; read-out: IC50 for inhibition of vessel branching (mean number of branching points, FIG. 4 Panel G)",22.2 nM
same,inhibition of SMAD2 phosphorylation (TGFb signaling),[3]; 10-60 minute time frame,10-20%
same,effect on AKT phosphorylation,"[3]; PDGF-BB, 10-60 minute time periods",No significant effects
same,"reduction in collagen production, Sirius red staining",[4],47%
same,"reduction in fibroblast activation, αSMA positivity",[4],> 90%
same,"reduction in tumor vasculature, CD31 signal",[4],52%
same,reduction in tumor volume after 46 days,[4],38.4%
